Assay results taken from the RNAGym collection of RNA variant scans (doi:10.7554/elife.80360).

B1: CPEB3 Ribozyme (parent)
chain: GGGGGCCACAGCAGAAGCGUUCACGUCGCGGCCCCUGUCAGAUUCUGGUGAAUCUGCGAAUUCUGCUGU

Variants of: B1
Assay: self-cleavage, relative activity (ratio to wild type); higher = more cleavage; co-transcriptional

| Variant | self-cleavage |
| --- | --- |
| GGGGGCCACAGCAGAAGCGUUCACGUCGCGGCCCAUGUCAGAUUCUGGUGACUCUGCGAAUUCUGCUGU | 0.316 |
| GGGGGCCACAGCAGAAGCGUUCACGUCGCGGCCCAUGUCAUAUUCUGGUGAAUCUGCGAAUUCUGCUGU | 0.277 |
| GGGGGCCACAGCAGAAGCGUUCACGUCGCGGCCCAUGUCAAAUUCUGGUGAAUCUGCGAAUUCUGCUGU | 0.264 |
| GGGGGCCACAGCAGAAGCGUUCACGUCGCGGCCUCUGUCAGAUUCUGUUGAAUCUGCGAAUUCUGCUGU | 0.983 |
| GGGGGCCACAGCAGAAGCGUUCACGUCGCGGCCUCUGUCAGAUUCUGGUGAAUCUGCGAAUUCGGCUGU | 0.928 |
| GGGGGCCACAGCAGAAGCGUUCACGUCGCGGCCUCUGUCAGAUUCUGGUGAAUCUGCGAAUUCCGCUGU | 0.971 |
| GGGGGCCACAGCAGAAGCGUUCACGUCGCGGCCUCUGUCAGAUUCUGGUGAAUCUGCGAAUUCUGCUGA | 1.01 |
| GGGGGCCACAGCAGAAGCGUUCACGUCGCGGCCUCUGUCAGAUUCUGGUGAAUCUGCGAAUUCUGCUGC | 1.07 |
| GGGGGCCACAGCAGAAGCGUUCACGUCGCGGCCUCUGUCAGAUUCUGGUGAAUCUGCGAAUUCUGCUGG | 1.04 |
| GGGGGCCACAGCAGAAGCGUUCACGUCGCGGCCUCUGUCAGAUUCUGGUCAAUCUGCGAAUUCUGCUGU | 0.999 |
| GGGGGCCACAGCAGAAGCGUUCACGUCGCGGCCUCUGUCAGAUUCUGGUAAAUCUGCGAAUUCUGCUGU | 1.03 |
| GGGGGCCACAGCAGAAGCGUUCACGUCGCGGCCUCUGUCAGAUUCUGGUGAAUCUGCGAAUUCUACUGU | 0.919 |
| GGGGGCCACAGCAGAAGCGUUCACGUCGCGGCCUCUGUCAGAUUCUGGUGAAUCUGCGAAUUCUCCUGU | 0.682 |
| GGGGGCCACAGCAGAAGCGUUCACGUCGCGGCCUCUGUCAGAUUCUGGUGAAUCUUCGAAUUCUGCUGU | 0.975 |
| GGGGGCCACAGCAGAAGCGUUCACGUCGCGGCCUCUGUCAGAUUCUGGUGAAUCUACGAAUUCUGCUGU | 0.955 |
| GGGGGCCACAGCAGAAGCGUUCACGUCGCGGCCUCUGUCAGAUUCUGGUGAAUCUCCGAAUUCUGCUGU | 0.792 |
| GGGGGCCACAGCAGAAGCGUUCACGUCGCGGCCUCCGUCAGAUUCUGGUGAAUCUGCGAAUUCUGCUGU | 0.922 |
| GGGGGCCACAGCAGAAGCGUUCACGUCGCGGCCUCGGUCAGAUUCUGGUGAAUCUGCGAAUUCUGCUGU | 0.256 |
| GGGGGCCACAGCAGAAGCGUUCACGUCGCGGCCUCUGUCAGAUUCUGGUGAAUCUGCGAAUACUGCUGU | 0.921 |
| GGGGGCCACAGCAGAAGCGUUCACGUCGCGGCCUCUGUCAGAUUCUGGUGAAUCUGCGAAUGCUGCUGU | 0.892 |

| Variant | self-cleavage |
| --- | --- |
| GGGGGCCACAGCAGAAGCGUUCACGUCGCGGCCUCUGUCAGAUUCUGGUGAAUCUGCGAAUUCUGCUCU | 0.962 |
| GGGGGCCACAGCAGAAGCGUUCACGUCGCGGCCUCUGUCAGAUUCUGGUGAAUCUGCGAAUUCUGCUAU | 1.01 |
| GGGGGCCACAGCAGAAGCGUUCACGUCGCGGCCUCUGUCAGAUUCUGGAGAAUCUGCGAAUUCUGCUGU | 0.996 |
| GGGGGCCACAGCAGAAGCGUUCACGUCGCGGCCUCUGUCAGAUUCUGGCGAAUCUGCGAAUUCUGCUGU | 0.998 |
| GGGGGCCACAGCAGAAGCGUUCACGUCGCGGCCUCUGUCAGAUUCUGGGGAAUCUGCGAAUUCUGCUGU | 0.985 |
| GGGGGCCACAGCAGAAGCGUUCACGUCGCGGCCUCUGUCAAAUUCUGGUGAAUCUGCGAAUUCUGCUGU | 0.828 |
| GGGGGCCACAGCAGAAGCGUUCACGUCGCGGCCUCUGUCAGAUGCUGGUGAAUCUGCGAAUUCUGCUGU | 0.859 |
| GGGGGCCACAGCAGAAGCGUUCACGUCGCGGCCUCUGUCAGAUCCUGGUGAAUCUGCGAAUUCUGCUGU | 0.938 |
| GGGGGCCACAGCAGAAGCGUUCACGUCGCGGCCUCUGUCAGAUACUGGUGAAUCUGCGAAUUCUGCUGU | 0.963 |
| GGGGGCCACAGCAGAAGCGUUCACGUCGCGGCCCAUGUCAGAUUCUGGUGAAUCUGCGACUUCUGCUGU | 0.193 |
| GGGGGCCACAGCAGAAGCGUUCACGUCGCGGCCCAUGUCAGAUUCUGGUGAAUCUGCGAGUUCUGCUGU | 0.24 |
| GGGGGCCACAGCAGAAGCGUUCACGUCGCGGCCUCUGUCAGAUUCCGGUGAAUCUGCGAAUUCUGCUGU | 0.977 |
| GGGGGCCACAGCAGAAGCGUUCACGUCGCGGCCUCUGUCAGAUUCGGGUGAAUCUGCGAAUUCUGCUGU | 0.988 |
| GGGGGCCACAGCAGAAGCGUUCACGUCGCGGCCUCUGUCAGAUUCAGGUGAAUCUGCGAAUUCUGCUGU | 1 |
| GGGGGCCACAGCAGAAGCGUUCACGUCGCGGCCUCUGUCAGAUUCUGGUGAAUCAGCGAAUUCUGCUGU | 0.925 |
| GGGGGCCACAGCAGAAGCGUUCACGUCGCGGCCUCUGUCAGAUUCUGGUGAAUCGGCGAAUUCUGCUGU | 0.84 |
| GGGGGCCACAGCAGAAGCGUUCACGUCGCGGCCCAUGUCAGAUUCUGGUGAAUCUGUGAAUUCUGCUGU | 0.191 |
| GGGGGCCACAGCAGAAGCGUUCACGUCGCGGCCCAUGUGAGAUUCUGGUGAAUCUGCGAAUUCUGCUGU | 0.3 |
| GGGGGCCACAGCAGAAGCGUUCACGUCGCGGCCCAUGUUAGAUUCUGGUGAAUCUGCGAAUUCUGCUGU | 0.183 |
